Measurements reported in paper PMC2583361 (Critical reviews in biochemistry and molecular biology, 2008).
Like-named read-outs stand apart in the source and are kept apart here.

Key:
Experiment in all cases: ITC
[1] = molecular target: T1, Escherichia coli single-stranded DNA binding protein (SSB) (E. coli, UniProt P0AGE0 1-178)
[2] = molecular target: T1, Escherichia coli single-stranded DNA …; remark: listed apart in the source
[3] = molecular target: T1, Escherichia coli single-stranded DNA …; remark: listed apart in the source
[4] = molecular target: T1, Escherichia coli single-stranded DNA …; remark: listed apart in the source

T1 sequence (P0AGE0 whole entry): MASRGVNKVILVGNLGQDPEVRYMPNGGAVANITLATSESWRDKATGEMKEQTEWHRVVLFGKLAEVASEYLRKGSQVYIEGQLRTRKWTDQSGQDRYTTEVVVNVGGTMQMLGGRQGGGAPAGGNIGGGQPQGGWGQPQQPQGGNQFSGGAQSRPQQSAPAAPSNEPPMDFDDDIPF

B1: PriA DNA helicase (enzyme, E. coli, UniProt P17888 1-732, looked up)
chain: MPVAHVALPVPLPRTFDYLLPEGMTVKAGCRVRVPFGKQQERIGIVVSVSDASELPLNELKAVVEVLDSEPVFTHSVWRLLLWAADYYHHPIGDVLFHALPILLRQGRPAANAPMWYWFATEQGQAVDLNSLKRSPKQQQALAALRQGKIWRDQVATLEFNDAALQALRKKGLCDLASETPEFSDWRTNYAVSGERLRLNTEQATAVGAIHSAADTFSAWLLAGVTGSGKTEVYLSVLENVLAQGKQALVMVPEIGLTPQTIARFRERFNAPVEVLHSGLNDSERLSAWLKAKNGEAAIVIGTRSALFTPFKNLGVIVIDEEHDSSYKQQEGWRYHARDLAVYRAHSEQIPIILGSATPALETLCNVQQKKYRLLRLTRRAGNARPAIQHVLDLKGQKVQAGLAPALITRMRQHLQADNQVILFLNRRGFAPALLCHDCGWIAECPRCDHYYTLHQAQHHLRCHHCDSQRPVPRQCPSCGSTHLVPVGLGTEQLEQTLAPLFPGVPISRIDRDTTSRKGALEQQLAEVHRGGARILIGTQMLAKGHHFPDVTLVALLDVDGALFSADFRSAERFAQLYTQVAGRAGRAGKQGEVVLQTHHPEHPLLQTLLYKGYDAFAEQALAERRMMQLPPWTSHVIVRAEDHNNQHAPLFLQQLRNLILSSPLADEKLWVLGPVPALAPKRGGRWRWQILLQHPSRVRLQHIINGTLALINTIPDSRKVKWVLDVDPIEG
dH [1]: -28 kcal/mol
stoichiometry N [1]: 1.7
dH [2]: -5.1 kcal/mol
stoichiometry N [2]: 3.7
dH [3]: -28.7 kcal/mol
stoichiometry N [3]: 5.2
dH [4]: -6.8 kcal/mol
stoichiometry N [4]: 4.6
